According to US20140227225, “HCV Helicase Inhibitors and Methods of Use Thereof” (UWM RESEARCH FOUNDATION, INC., published 2014):

Target: SSB single-stranded DNA-binding protein (Escherichia coli, UniProt P0AGE0 P0AGE0:2-178)
Assay: FP; complex of 5 nM Cy5-dT15 with 20 nM SSB, disrupted by compounds; 25 mM MOPS pH 7.5, 1.25 mM MgCl2
Conditions: tags: Promega; chain copies: 4; label: 5'-Cy5
Method: The Escherichia coli SSB assay was performed in a total volume of 20.2 μl in 384-well, flat-bottom, low volume, black microplates (Greiner Bio-One).
For IC₅₀ determination, assays were performed with 60 μl total volume in black flat bottomed 384-well microplates (Corning). First, 3.0 μl of DMSO or compound dissolved in DMSO was added, such that the final concentration of DMSO was 5% (v/v) in each assay.

SSB single-stranded DNA-binding protein, sequence (P0AGE0 2-178, one chain of several): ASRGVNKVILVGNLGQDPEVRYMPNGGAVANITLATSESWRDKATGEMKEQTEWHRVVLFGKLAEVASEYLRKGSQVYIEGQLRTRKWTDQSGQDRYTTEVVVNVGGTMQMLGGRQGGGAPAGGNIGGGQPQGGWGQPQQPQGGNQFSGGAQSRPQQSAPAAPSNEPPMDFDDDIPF

## TTTTTTTTTTTTTTT (ssDNA) [Cy5-dT15]
  binding result: binds
